According to patent publication US20100260668A1 (published 2010):

B1: DVD474 (VEGF (AB071) N-terminal / DLL4 (seq. 1) C-terminal DVD-Ig, long HC linker, long LC linker) (bispecific antibody, human IgG1, kappa)
heavy: not shown
light: DIQMTQSPSSLSASVGDRVTITCRASQVIRRSLAWYQQKPGKAPKLLIYAASNLASGVPSRFSGSGSGTDFTLTISSLQPEDFATYYCQQSNTSPLTFGQGTKVEIKRTVAAPSVFIFPPDIQMTQSPSSLSASVGDRVTITCRASQDVSTAVAWYQQKPGKAPKLLIYSASFLYSGVPSRFSGSGSGTDFTLTISSLQPEDFATTYYCQQSYTGTVTFGQGTKVEIKRTVAAPSVFIFPPSDEQLKSGTASVVCLLNNFYPREAKVQWKVDNALQSGNSQESVTEQDSKDSTYSLSSTLTLSKADYEKHKVYACEVTHQGLSSPVTKSFNRGEC
notes: also called DVD474H/DVD474L
B2: DVD486 (VEGF (AB071) N-terminal / DLL4 (seq. 1) C-terminal DVD-Ig, short HC linker, long LC linker) (bispecific antibody, human IgG1, kappa)
heavy: not shown
light: B1 light
notes: also called DVD486H/DVD486L
B3: DVD485 (DLL4 (seq. 1) N-terminal / VEGF (AB071) C-terminal DVD-Ig, short HC linker, long LC linker) (bispecific antibody, human IgG1, kappa)
heavy: not shown
light: DIQMTQSPSSLSASVGDRVTITCRASQDVSTAVAWYQQKPGKAPKLLIYSASFLYSGVPSRFSGSGSGTDFTLTISSLQPEDFATTYYCQQSYTGTVTFGQGTKVEIKRTVAAPSVFIFPPDIQMTQSPSSLSASVGDRVTITCRASQVIRRSLAWYQQKPGKAPKLLIYAASNLASGVPSRFSGSGSGTDFTLTISSLQPEDFATYYCQQSNTSPLTFGQGTKVEIKRTVAAPSVFIFPPSDEQLKSGTASVVCLLNNFYPREAKVQWKVDNALQSGNSQESVTEQDSKDSTYSLSSTLTLSKADYEKHKVYACEVTHQGLSSPVTKSFNRGEC
notes: also called DVD485H/DVD485L
B4: DVD470 (bispecific antibody, human IgG1, kappa)
heavy: not shown
light: DIQMTQSPSSLSASVGDRVTITCSASQDISNYLNWYQQKPGKAPKVLIYFTSSLHSGVPSRFSGSGSGTDFTLTISSLQPEDFATYYCQQYSTVPWTFGQGTKVEIKRTVAAPSVFIFPPDIQMTQSPSSLSASVGDRVTITCRASQDVSTAVAWYQQKPGKAPKLLIYSASFLYSGVPSRFSGSGSGTDFTLTISSLQPEDFATTYYCQQSYTGTVTFGQGTKVEIKRTVAAPSVFIFPPSDEQLKSGTASVVCLLNNFYPREAKVQWKVDNALQSGNSQESVTEQDSKDSTYSLSSTLTLSKADYEKHKVYACEVTHQGLSSPVTKSFNRGEC
notes: DVD-Ig, HC long / LC long; DLL4 domain C-terminal; also called VEGF / DLL4 DVD-Ig; DVD470H
B5: DVD482 (bispecific antibody, human IgG1, kappa)
heavy: not shown
light: B4 light
notes: DVD-Ig, HC short / LC long; DLL4 domain C-terminal; also called VEGF / DLL4 DVD-Ig; DVD482H
B6: DVD471 (bispecific antibody, human IgG1, kappa, L234A L235A)
heavy: not shown
light: DIQMTQSPSSLSASVGDRVTITCRASQDVSTAVAWYQQKPGKAPKLLIYSASFLYSGVPSRFSGSGSGTDFTLTISSLQPEDFATTYYCQQSYTGTVTFGQGTKVEIKRTVAAPSVFIFPPDIQMTQSPSSLSASVGDRVTITCRASQDVSTAVAWYQQKPGKAPKLLIYSASFLYSGVPSRFSGSGSGTDFTLTISSLQPEDFATYYCQQSYTTPPTFGQGTKVEIKRTVAAPSVFIFPPSDEQLKSGTASVVCLLNNFYPREAKVQWKVDNALQSGNSQESVTEQDSKDSTYSLSSTLTLSKADYEKHKVYACEVTHQGLSSPVTKSFNRGEC
notes: DVD-Ig, HC long / LC long; DLL4 domain N-terminal; also called DLL4 / VEGF DVD-Ig; DVD471H
B7: DVD486 (bispecific antibody, human IgG1, kappa)
heavy: not shown
light: B1 light
notes: DVD-Ig, HC short / LC long; DLL4 domain C-terminal; also called VEGF / DLL4 DVD-Ig; DVD486H
B8: DVD474 (bispecific antibody, human IgG1, kappa)
heavy: not shown
light: B1 light
notes: DVD-Ig, HC long / LC long; DLL4 domain C-terminal; also called VEGF / DLL4 DVD-Ig; DVD474H
B9: DVD485 (bispecific antibody, human IgG1, kappa)
heavy: not shown
light: B3 light
notes: DVD-Ig, HC short / LC long; DLL4 domain N-terminal; also called DLL4 / VEGF DVD-Ig; DVD485H
B10: DVD476 (bispecific antibody, human IgG1, kappa)
heavy: not shown
light: DIQMTQSPSSLSASVGDRVTITCSASQDISNYLNWYQQKPGKAPKVLIYFTSSLHSGVPSRFSGSGSGTDFTLTISSLQPEDFATYYCQQYSTVPWTFGQGTKVEIKRTVAAPDIQMTQSPSSLSASVGDRVTITCRASQDVSTAVAWYQQKPGKAPKLLIYSASFLYSGVPSRFSGSGSGTDFTLTISSLQPEDFATTYYCQQSYTGTVTFGQGTKVEIKRTVAAPSVFIFPPSDEQLKSGTASVVCLLNNFYPREAKVQWKVDNALQSGNSQESVTEQDSKDSTYSLSSTLTLSKADYEKHKVYACEVTHQGLSSPVTKSFNRGEC
notes: DVD-Ig, HC long / LC short; DLL4 domain C-terminal; also called VEGF / DLL4 DVD-Ig; DVD476H
B11: DVD591 (bispecific antibody, human IgG1, kappa)
heavy: not shown
light: DIVLTQSPDSLAVSLGERVTMNCKSSQSLLNSGMRKSFLAWYQQKPGQSPKLLIYWASTRESGVPDRFTGSGSGTDFTLTISSVQAEDVAVYYCKQSYHLFTFGSGTKLEIKRTVAAPDIQMTQSPSSLSASVGDRVTITCRASQVIRRSLAWYQQKPGKAPKLLIYAASNLASGVPSRFSGSGSGTDFTLTISSLQPEDFATYYCQQSNTSPLTFGQGTKVEIKRTVAAPSVFIFPPSDEQLKSGTASVVCLLNNFYPREAKVQWKVDNALQSGNSQESVTEQDSKDSTYSLSSTLTLSKADYEKHKVYACEVTHQGLSSPVTKSFNRGEC
notes: DVD-Ig, N-term PlGF (AB047) / C-term VEGF (AB071); also called DVD591VH; DVD591VL
B12: DVD583 (bispecific antibody, human IgG1, kappa)
heavy: not shown
light: DIVLTQSPDSLAVSLGERVTMNCKSSQSLLNSGMRKSFLAWYQQKPGQSPKLLIYWASTRESGVPDRFTGSGSGTDFTLTISSVQAEDVAVYYCKQSYHLFTFGSGTKLEIKRTVAAPSVFIFPPDIQMTQSPSSLSASVGDRVTITCRASQVIRRSLAWYQQKPGKAPKLLIYAASNLASGVPSRFSGSGSGTDFTLTISSLQPEDFATYYCQQSNTSPLTFGQGTKVEIKRTVAAPSVFIFPPSDEQLKSGTASVVCLLNNFYPREAKVQWKVDNALQSGNSQESVTEQDSKDSTYSLSSTLTLSKADYEKHKVYACEVTHQGLSSPVTKSFNRGEC
notes: DVD-Ig, N-term PlGF (AB047) / C-term VEGF (AB071); also called DVD583H; DVD583L
B13: DVD599 (bispecific antibody, human IgG1, kappa)
heavy: not shown
light: B12 light
notes: DVD-Ig, N-term PlGF (AB047) / C-term VEGF (AB071); also called DVD599VH; DVD599VL
B14: DVD589 (bispecific antibody, human IgG1, kappa)
heavy: not shown
light: DIVLTQSPDSLAVSLGERVTMNCKSSQSLLNSGMRKSFLAWYQQKPGQSPKLLIYWASTRESGVPDRFTGSGSGTDFTLTISSVQAEDVAVYYCKQSYHLFTFGSGTKLEIKRTVAAPDIQMTQSPSSLSASVGDRVTITCRASQDVSTAVAWYQQKPGKAPKLLIYSASFLYSGVPSRFSGSGSGTDFTLTISSLQPEDFATYYCQQSYTTPPTFGQGTKVEIKRTVAAPSVFIFPPSDEQLKSGTASVVCLLNNFYPREAKVQWKVDNALQSGNSQESVTEQDSKDSTYSLSSTLTLSKADYEKHKVYACEVTHQGLSSPVTKSFNRGEC
notes: also called DVD589VH; DVD589VL
B15: DVD597 (bispecific antibody, human IgG1, kappa)
heavy: not shown
light: DIVLTQSPDSLAVSLGERVTMNCKSSQSLLNSGMRKSFLAWYQQKPGQSPKLLIYWASTRESGVPDRFTGSGSGTDFTLTISSVQAEDVAVYYCKQSYHLFTFGSGTKLEIKRTVAAPSVFIFPPDIQMTQSPSSLSASVGDRVTITCRASQDVSTAVAWYQQKPGKAPKLLIYSASFLYSGVPSRFSGSGSGTDFTLTISSLQPEDFATYYCQQSYTTPPTFGQGTKVEIKRTVAAPSVFIFPPSDEQLKSGTASVVCLLNNFYPREAKVQWKVDNALQSGNSQESVTEQDSKDSTYSLSSTLTLSKADYEKHKVYACEVTHQGLSSPVTKSFNRGEC
notes: also called DVD597VH; DVD597VL

molecular target: T1, human DLL4 extracellular domain (human, UniProt Q9NR61 27-529, biotin label in the Notch-1 competition ELISA (sites not given)); assay: competition ELISA: 14 nM biotin-labelled human DLL4 ECD pre-mixed with DVD-Ig, then on coated human Notch-1 (competitor Notch-1)
T1 construct: extracellular domain; also called biotin labeled human DLL4 extracellular domain

**Q.** B1 was tested. Which IC50 did it give?
**A.** 2.3 nM

**Q.** B2 was tested. Which IC50 did it give?
**A.** 2.91 nM

**Q.** Which IC50 does the source give for B3 here?
**A.** 3.44 nM

molecular target: T1, human DLL4 extracellular domain; assay: cell-based or functional assay

**Q.** For B1, which “DVD-Ig Inhibition of sFlt1 (IC50, nM)” value is on record?
**A.** 0.93 nM

**Q.** How did the “DVD-Ig Inhibition of sFlt1 (IC50, nM)” value turn out when B2 was run?
**A.** 0.7 nM

**Q.** How did the “DVD-Ig Inhibition of sFlt1 (IC50, nM)” value turn out when B3 was run?
**A.** 6.67 nM

molecular target: T2, biotin-labeled human DLL4 extracellular domain (human, UniProt Q9NR61 27-529, biotin-labeled); assay: DLL4 capture ELISA, DVD-Ig captured by anti-human Fc, biotin-labeled human DLL4 ECD
T2 construct: extracellular domain

**Q.** Which EC50 does the source give for B4 here?
**A.** 0.16 nM

**Q.** For B5, which EC50 is on record?
**A.** 0.17 nM

**Q.** How did the EC50 turn out when B6 was run?
**A.** 0.17 nM

**Q.** B7 was tested. Which EC50 did it give?
**A.** 0.16 nM

**Q.** With B8 as the binder, how does the EC50 read?
**A.** 0.14 nM

**Q.** With B9 as the binder, how does the EC50 read?
**A.** 5.45 nM

**Q.** How did the EC50 turn out when B10 was run?
**A.** 0.21 nM

molecular target: biotinylated VEGF (UniProt P15692-4 27-191, limits assumed, biotinylated); assay: VEGF capture ELISA, DVD-Ig captured by anti-human Fc, biotinylated VEGF

**Q.** B4 was tested. Which EC50 did it give?
**A.** 0.27 nM

**Q.** How did the EC50 turn out when B5 was run?
**A.** 0.22 nM

**Q.** For B6, which EC50 is on record?
**A.** 0.56 nM

**Q.** For B7, which EC50 is on record?
**A.** 0.53 nM

**Q.** How did the EC50 turn out when B8 was run?
**A.** 1.65 nM

**Q.** With B9 as the binder, how does the EC50 read?
**A.** 2.5 nM

**Q.** For B10, which EC50 is on record?
**A.** 0.22 nM

molecular target: T3, placental growth factor (PLGF) (UniProt P49763-2 21-149, limits assumed); assay: ligand-receptor binding competition assay, PlGF binding to VEGFR1; N-terminal VD
T3 construct: also called P1GF
T3 sequence (looked up): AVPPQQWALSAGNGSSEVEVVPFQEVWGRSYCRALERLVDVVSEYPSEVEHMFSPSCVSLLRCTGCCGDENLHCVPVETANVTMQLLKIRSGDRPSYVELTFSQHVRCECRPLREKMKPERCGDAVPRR

**Q.** Which IC50 does the source give for B11 here?
**A.** 3.23 nM

**Q.** B12 was tested. Which IC50 did it give?
**A.** 3.25 nM

**Q.** How did the IC50 turn out when B13 was run?
**A.** 3.19 nM

**Q.** Which IC50 does the source give for B14 here?
**A.** 2.87 nM

**Q.** For B15, which IC50 is on record?
**A.** 2.94 nM

molecular target: T4, human DLL4 on 293G-human DLL4 cells (human, UniProt Q9NR61 27-685); assay: FACS: inhibition of Notch1 binding to 293G-human DLL4 cells (competitor Notch1)
T4 construct: whole, on cells; no method paragraph describes this FACS assay

**Q.** With B1 as the binder, how does the IC50 read?
**A.** 27.5 nM

**Q.** B2 was tested. Which IC50 did it give?
**A.** 10.2 nM

**Q.** With B3 as the binder, how does the IC50 read?
**A.** 6.3 nM
